# Measured values as given in US20140087995A1 (published 2014).
# Numbered stars: 1 amine (or outer) side, 2 acyl side, 3 side chain; on linkers, the order of the positions; unused ones are H or OH. Bridge positions count the residues as written; N and C are the ends. Side chains are listed from the residue outwards. Ends that are not written are not given here. * marks the point of attachment. C20 diacid = O=C(O)CCCCCCCCCCCCCCCCCCC(=O)*; γGlu = O=C(O)[C@H](CCC(=O)[*:2])N[*:1]; AEEA = NCCOCCOCC(=O)O
# T1: human calcitonin receptor (human, UniProt P30988 25-474)
# T1 construct: whole, on cells; Assay used cell membranes of the transfected BHK cells; also called hCTR; hCT
# T1 sequence (looked up): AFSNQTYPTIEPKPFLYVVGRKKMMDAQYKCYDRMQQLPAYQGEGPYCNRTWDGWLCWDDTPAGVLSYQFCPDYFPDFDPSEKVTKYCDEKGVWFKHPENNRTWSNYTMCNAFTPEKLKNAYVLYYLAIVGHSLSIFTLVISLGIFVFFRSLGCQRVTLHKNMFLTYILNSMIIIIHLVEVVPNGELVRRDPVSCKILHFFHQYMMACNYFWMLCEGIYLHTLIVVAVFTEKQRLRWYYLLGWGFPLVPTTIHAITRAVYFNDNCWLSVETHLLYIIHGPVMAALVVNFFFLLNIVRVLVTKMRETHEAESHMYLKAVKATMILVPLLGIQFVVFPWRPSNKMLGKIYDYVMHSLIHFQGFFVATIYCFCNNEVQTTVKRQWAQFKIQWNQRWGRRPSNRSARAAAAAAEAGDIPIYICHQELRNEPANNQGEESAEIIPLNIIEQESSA
# B1: N^ε1-[2-[2-[2-[[(4S)-4-carboxy-4-(19-carboxynonadecanoylamino)butanoyl]amino]ethoxy]ethoxy]acetyl]-[His14,Arg17,Pro21,Pro27,Pro31]-h-amylin (peptide)
# peptide: K([AEEA-γGlu-C20 diacid])CNTATCATQRLAHFLRHSSPNFGAIPSSTPVGSNTY-NH2
# modifications: disulfide 2-7; N-terminus assumed
# SMILES: CC[C@H](C)[C@H](NC(=O)[C@H](C)NC(=O)CNC(=O)[C@H](Cc1ccccc1)NC(=O)[C@H](CC(N)=O)NC(=O)[C@@H]1CCCN1C(=O)[C@H](CO)NC(=O)[C@H](CO)NC(=O)[C@H](Cc1c[nH]cn1)NC(=O)[C@H](CCCNC(=N)N)NC(=O)[C@H](CC(C)C)NC(=O)[C@H](Cc1ccccc1)NC(=O)[C@H](Cc1c[nH]cn1)NC(=O)[C@H](C)NC(=O)[C@H](CC(C)C)NC(=O)[C@H](CCCNC(=N)N)NC(=O)[C@H](CCC(N)=O)NC(=O)[C@@H](NC(=O)[C@H](C)NC(=O)[C@@H]1CSSC[C@H](NC(=O)[C@@H](N)CCCCNC(=O)COCCOCCNC(=O)CC[C@H](NC(=O)CCCCCCCCCCCCCCCCCCC(=O)O)C(=O)O)C(=O)N[C@@H](CC(N)=O)C(=O)N[C@@H]([C@@H](C)O)C(=O)N[C@@H](C)C(=O)N[C@@H]([C@@H](C)O)C(=O)N1)[C@@H](C)O)C(=O)N1CCC[C@H]1C(=O)N[C@@H](CO)C(=O)N[C@@H](CO)C(=O)N[C@H](C(=O)N1CCC[C@H]1C(=O)N[C@H](C(=O)NCC(=O)N[C@@H](CO)C(=O)N[C@@H](CC(N)=O)C(=O)N[C@H](C(=O)N[C@@H](Cc1ccc(O)cc1)C(N)=O)[C@@H](C)O)C(C)C)[C@@H](C)O
# notes: Synthetic analogue; also called compound 61
# B2: N^ε1-[(4S)-4-carboxy-4-(19-carboxynonadecanoylamino)butanoyl]-[His14,Arg17,Pro21,Pro27,Pro31]-h-amylin (peptide)
# peptide: K([γGlu-C20 diacid])CNTATCATQRLAHFLRHSSPNFGAIPSSTPVGSNTY-NH2
# modifications: disulfide 2-7; N-terminus assumed
# SMILES: CC[C@H](C)[C@H](NC(=O)[C@H](C)NC(=O)CNC(=O)[C@H](Cc1ccccc1)NC(=O)[C@H](CC(N)=O)NC(=O)[C@@H]1CCCN1C(=O)[C@H](CO)NC(=O)[C@H](CO)NC(=O)[C@H](Cc1c[nH]cn1)NC(=O)[C@H](CCCNC(=N)N)NC(=O)[C@H](CC(C)C)NC(=O)[C@H](Cc1ccccc1)NC(=O)[C@H](Cc1c[nH]cn1)NC(=O)[C@H](C)NC(=O)[C@H](CC(C)C)NC(=O)[C@H](CCCNC(=N)N)NC(=O)[C@H](CCC(N)=O)NC(=O)[C@@H](NC(=O)[C@H](C)NC(=O)[C@@H]1CSSC[C@H](NC(=O)[C@@H](N)CCCCNC(=O)CC[C@H](NC(=O)CCCCCCCCCCCCCCCCCCC(=O)O)C(=O)O)C(=O)N[C@@H](CC(N)=O)C(=O)N[C@@H]([C@@H](C)O)C(=O)N[C@@H](C)C(=O)N[C@@H]([C@@H](C)O)C(=O)N1)[C@@H](C)O)C(=O)N1CCC[C@H]1C(=O)N[C@@H](CO)C(=O)N[C@@H](CO)C(=O)N[C@H](C(=O)N1CCC[C@H]1C(=O)N[C@H](C(=O)NCC(=O)N[C@@H](CO)C(=O)N[C@@H](CC(N)=O)C(=O)N[C@H](C(=O)N[C@@H](Cc1ccc(O)cc1)C(N)=O)[C@@H](C)O)C(C)C)[C@@H](C)O
# notes: Synthetic analogue; also called compound 62
# B3: N^ε1-[(4S)-4-carboxy-4-(19-carboxynonadecanoylamino)butanoyl]-[Arg14,Arg17,Pro21,Pro27,Pro31]-h-amylin (peptide)
# peptide: K([γGlu-C20 diacid])CNTATCATQRLARFLRHSSPNFGAIPSSTPVGSNTY-NH2
# modifications: disulfide 2-7; N-terminus assumed
# SMILES: CC[C@H](C)[C@H](NC(=O)[C@H](C)NC(=O)CNC(=O)[C@H](Cc1ccccc1)NC(=O)[C@H](CC(N)=O)NC(=O)[C@@H]1CCCN1C(=O)[C@H](CO)NC(=O)[C@H](CO)NC(=O)[C@H](Cc1c[nH]cn1)NC(=O)[C@H](CCCNC(=N)N)NC(=O)[C@H](CC(C)C)NC(=O)[C@H](Cc1ccccc1)NC(=O)[C@H](CCCNC(=N)N)NC(=O)[C@H](C)NC(=O)[C@H](CC(C)C)NC(=O)[C@H](CCCNC(=N)N)NC(=O)[C@H](CCC(N)=O)NC(=O)[C@@H](NC(=O)[C@H](C)NC(=O)[C@@H]1CSSC[C@H](NC(=O)[C@@H](N)CCCCNC(=O)CC[C@H](NC(=O)CCCCCCCCCCCCCCCCCCC(=O)O)C(=O)O)C(=O)N[C@@H](CC(N)=O)C(=O)N[C@@H]([C@@H](C)O)C(=O)N[C@@H](C)C(=O)N[C@@H]([C@@H](C)O)C(=O)N1)[C@@H](C)O)C(=O)N1CCC[C@H]1C(=O)N[C@@H](CO)C(=O)N[C@@H](CO)C(=O)N[C@H](C(=O)N1CCC[C@H]1C(=O)N[C@H](C(=O)NCC(=O)N[C@@H](CO)C(=O)N[C@@H](CC(N)=O)C(=O)N[C@H](C(=O)N[C@@H](Cc1ccc(O)cc1)C(N)=O)[C@@H](C)O)C(C)C)[C@@H](C)O
# notes: Synthetic analogue; also called compound 63
# B4: N^ε1-[(4S)-4-carboxy-4-(19-carboxynonadecanoylamino)butanoyl]-[Arg17,Pro21,Pro27,His35]-h-amylin (peptide)
# peptide: K([γGlu-C20 diacid])CNTATCATQRLANFLRHSSPNFGAIPSSTNVGSHTY-NH2
# modifications: disulfide 2-7; N-terminus assumed
# SMILES: CC[C@H](C)[C@H](NC(=O)[C@H](C)NC(=O)CNC(=O)[C@H](Cc1ccccc1)NC(=O)[C@H](CC(N)=O)NC(=O)[C@@H]1CCCN1C(=O)[C@H](CO)NC(=O)[C@H](CO)NC(=O)[C@H](Cc1c[nH]cn1)NC(=O)[C@H](CCCNC(=N)N)NC(=O)[C@H](CC(C)C)NC(=O)[C@H](Cc1ccccc1)NC(=O)[C@H](CC(N)=O)NC(=O)[C@H](C)NC(=O)[C@H](CC(C)C)NC(=O)[C@H](CCCNC(=N)N)NC(=O)[C@H](CCC(N)=O)NC(=O)[C@@H](NC(=O)[C@H](C)NC(=O)[C@@H]1CSSC[C@H](NC(=O)[C@@H](N)CCCCNC(=O)CC[C@H](NC(=O)CCCCCCCCCCCCCCCCCCC(=O)O)C(=O)O)C(=O)N[C@@H](CC(N)=O)C(=O)N[C@@H]([C@@H](C)O)C(=O)N[C@@H](C)C(=O)N[C@@H]([C@@H](C)O)C(=O)N1)[C@@H](C)O)C(=O)N1CCC[C@H]1C(=O)N[C@@H](CO)C(=O)N[C@@H](CO)C(=O)N[C@H](C(=O)N[C@@H](CC(N)=O)C(=O)N[C@H](C(=O)NCC(=O)N[C@@H](CO)C(=O)N[C@@H](Cc1c[nH]cn1)C(=O)N[C@H](C(=O)N[C@@H](Cc1ccc(O)cc1)C(N)=O)[C@@H](C)O)C(C)C)[C@@H](C)O
# notes: Synthetic analogue; also called compound 60
# B5: N^ε1-[(4S)-4-carboxy-4-[[(4S)-4-carboxy-4-(19-carboxynonadecanoylamino)butanoyl]amino]butanoyl]-[Asp14,Arg17,Pro21,Pro27,Arg35]-h-amylin (peptide)
# peptide: K([γGlu-γGlu-C20 diacid])CNTATCATQRLADFLRHSSPNFGAIPSSTNVGSRTY-NH2
# modifications: disulfide 2-7; N-terminus assumed
# SMILES: CC[C@H](C)[C@H](NC(=O)[C@H](C)NC(=O)CNC(=O)[C@H](Cc1ccccc1)NC(=O)[C@H](CC(N)=O)NC(=O)[C@@H]1CCCN1C(=O)[C@H](CO)NC(=O)[C@H](CO)NC(=O)[C@H](Cc1c[nH]cn1)NC(=O)[C@H](CCCNC(=N)N)NC(=O)[C@H](CC(C)C)NC(=O)[C@H](Cc1ccccc1)NC(=O)[C@H](CC(=O)O)NC(=O)[C@H](C)NC(=O)[C@H](CC(C)C)NC(=O)[C@H](CCCNC(=N)N)NC(=O)[C@H](CCC(N)=O)NC(=O)[C@@H](NC(=O)[C@H](C)NC(=O)[C@@H]1CSSC[C@H](NC(=O)[C@@H](N)CCCCNC(=O)CC[C@H](NC(=O)CC[C@H](NC(=O)CCCCCCCCCCCCCCCCCCC(=O)O)C(=O)O)C(=O)O)C(=O)N[C@@H](CC(N)=O)C(=O)N[C@@H]([C@@H](C)O)C(=O)N[C@@H](C)C(=O)N[C@@H]([C@@H](C)O)C(=O)N1)[C@@H](C)O)C(=O)N1CCC[C@H]1C(=O)N[C@@H](CO)C(=O)N[C@@H](CO)C(=O)N[C@H](C(=O)N[C@@H](CC(N)=O)C(=O)N[C@H](C(=O)NCC(=O)N[C@@H](CO)C(=O)N[C@@H](CCCNC(=N)N)C(=O)N[C@H](C(=O)N[C@@H](Cc1ccc(O)cc1)C(N)=O)[C@@H](C)O)C(C)C)[C@@H](C)O
# notes: Synthetic analogue of human amylin; also called compound 52
# B6: N^ε1-[(4S)-4-carboxy-4-(19-carboxynonadecanoylamino)butanoyl]-[Glu14,Arg17,Pro21,Pro27,Arg35]-h-amylin (peptide)
# peptide: K([γGlu-C20 diacid])CNTATCATQRLAEFLRHSSPNFGAIPSSTNVGSRTY-NH2
# modifications: disulfide 2-7; N-terminus assumed
# SMILES: CC[C@H](C)[C@H](NC(=O)[C@H](C)NC(=O)CNC(=O)[C@H](Cc1ccccc1)NC(=O)[C@H](CC(N)=O)NC(=O)[C@@H]1CCCN1C(=O)[C@H](CO)NC(=O)[C@H](CO)NC(=O)[C@H](Cc1c[nH]cn1)NC(=O)[C@H](CCCNC(=N)N)NC(=O)[C@H](CC(C)C)NC(=O)[C@H](Cc1ccccc1)NC(=O)[C@H](CCC(=O)O)NC(=O)[C@H](C)NC(=O)[C@H](CC(C)C)NC(=O)[C@H](CCCNC(=N)N)NC(=O)[C@H](CCC(N)=O)NC(=O)[C@@H](NC(=O)[C@H](C)NC(=O)[C@@H]1CSSC[C@H](NC(=O)[C@@H](N)CCCCNC(=O)CC[C@H](NC(=O)CCCCCCCCCCCCCCCCCCC(=O)O)C(=O)O)C(=O)N[C@@H](CC(N)=O)C(=O)N[C@@H]([C@@H](C)O)C(=O)N[C@@H](C)C(=O)N[C@@H]([C@@H](C)O)C(=O)N1)[C@@H](C)O)C(=O)N1CCC[C@H]1C(=O)N[C@@H](CO)C(=O)N[C@@H](CO)C(=O)N[C@H](C(=O)N[C@@H](CC(N)=O)C(=O)N[C@H](C(=O)NCC(=O)N[C@@H](CO)C(=O)N[C@@H](CCCNC(=N)N)C(=O)N[C@H](C(=O)N[C@@H](Cc1ccc(O)cc1)C(N)=O)[C@@H](C)O)C(C)C)[C@@H](C)O
# notes: Synthetic analogue; also called compound 51
# Biological target: T1, human calcitonin receptor
# Assay: SPA radioligand competition (125I-calcitonin), membranes of BHK cells with human calcitonin receptor
# How it was run: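 BHK hCTR membranes 35 ng/μL + SPA beads 0.05 mg/well; buffer 50 mM Hepes pH 7.4, 1 mM CaCl2, 5 mM MgCl₂, 0.1% OA, 0.02% Tween20. 120 min, 25° C., shaking. Scintillation count; IC50 by one-site binding competition.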
row,IC50,Binder
1,8.11 nM,B1
2,6.17 nM,B2
3,130 nM,B3
4,31.4 nM,B4
5,56.9 nM,B5
6,31.1 nM,B6
